According to US20230406915A1 (HJB HANGZHOU, published 2023):
Where a chain is given by its changes, count along the chain named.

B1: M-751 (antibody, V domains shown)
VH: QVQLVQSGAEVKKPGSSVKVSCKASGYTFTNYWMNWVRQAPGQGLEWMGMIHPSDSETRLNQKFQGRVTITVDKSTSTAYMELSSLRSEDTAVYYCAREGRLGLRSYAMDYWGQGTLVTVSS
VL: DIQMTQSPSSLSASVGDRVTITCRSSQSLLNSSNQKNYLAWYQQKPGKVPKLLIYFASTRESGVPSRFSGSGSGTDFTLTISSLQPEDVATYFCQQHYITPLTFGGGTKVEIKR
notes: also called candidate antibody
B2: M-747 (antibody, human IgG1, kappa, V domains shown)
VH: B1 VH with A9S, V11L, S16A, Q65K, G66D
VL: DIVMTQSPDSLAVSLGERATINCKSSQSLLNSSNQKNYLAWYQQKPGQPPKLLVYFASTRESGVPDRFSGSGSGTDFTLTISSLQAEDVAVYFCQQHYITPLTFGGGTKVEIKR
notes: Humanized anti-DKK2 parental antibody; also called parental antibody; parental molecule
B3: M-755 (antibody, V domains shown)
VH: B1 VH with S16A, F64L, S84R, E89D
VL: B1 VL with V49A, V89F
notes: as for B1

How the values were obtained:
[1] = molecular target: the molecule itself; experiment: BLI (forteBIO Octet RED96), antibody captured on ProA biosensor, self-association in acetate buffer pH 5.5; acetate at pH 5.5; self-association
Description: (§1) Self-association binding constant: At high concentrations, undesirable solution properties such as self-association can pose significant challenges to preparation development. In addition to potential manufacturing and delivery challenges, self-associating substances can also affect biological activity and pharmacokinetic properties.
(§2) The self-association binding constants were measured using the forteBIO Octet technique (Octet RED96). The antibodies were diluted to 150 ug/mL with an acetate buffer (pH 5.5), and then added to sample plates (forteBIO, Greiner, PN655209). A ProA biosensor (forteBIO) was used to capture antibodies. Measurements were performed using basic dynamics under the following settings: baseline 60/load 900/baseline 60/association 300/dissociation 300. The association (Kon) and dissociation (Kdis) rate constants of the target antigen were calculated and used to obtain the dissociation constant (KD). All calculations were performed using software provided by forteBIO.

[2] = molecular target: the molecule itself; experiment: BLI (forteBIO Octet RED96), antibody captured on ProA biosensor, self-association in acetate buffer pH 5.5
Description: as §1, §2

Protein | Kd [1] [µM] | Kd [2] [µM]
B1 | 438 | –
B2 | – | 208
B3 | – | 456
